According to US20090111753A1, “Nogo-A Polypeptide Fragments, Variant Nogo Receptor-1 Polypeptides, and Uses Thereof” (Yale University, priority 2004, published 2009):

Experiments:
AP-Lingo-1 = biological target: T1, AP-Lingo-1 (Homo sapiens, UniProt Q96FE5); test: Binding of AP-Lingo-1 to COS-7 cells expressing NgR mutants; parameters: key: ++: WT level; +: weaker than wild type; trace binding; −: no binding; conditions: AP-Lingo-1 10 nM; level of binding compared to wild type NgR
T1 construct: made in house; NgR mutants: COS-7
T1 sequence (Q96FE5 40-538 limits assumed): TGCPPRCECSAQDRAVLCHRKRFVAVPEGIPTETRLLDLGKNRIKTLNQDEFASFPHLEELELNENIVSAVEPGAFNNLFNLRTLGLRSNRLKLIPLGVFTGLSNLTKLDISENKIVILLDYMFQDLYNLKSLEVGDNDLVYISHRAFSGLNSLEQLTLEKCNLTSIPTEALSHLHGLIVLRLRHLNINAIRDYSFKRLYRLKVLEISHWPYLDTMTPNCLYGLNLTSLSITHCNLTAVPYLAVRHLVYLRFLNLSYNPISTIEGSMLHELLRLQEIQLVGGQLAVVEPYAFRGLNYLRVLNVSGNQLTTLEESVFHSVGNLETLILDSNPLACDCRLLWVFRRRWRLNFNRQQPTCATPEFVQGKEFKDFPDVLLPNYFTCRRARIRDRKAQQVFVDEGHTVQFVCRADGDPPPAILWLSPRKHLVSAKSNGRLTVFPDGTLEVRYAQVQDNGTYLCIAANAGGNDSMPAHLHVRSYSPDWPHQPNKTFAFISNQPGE
Description: (§1) FIG. 4A. […] Binding of AP or AP fused NgR ligands to COS-7 cells expressing different NgR mutants as indicated. The concentrations of ligands applied were: AP, 30 nM; AP-Ng66, 5 nM; AP-Ng33, 10 nM; AP-B4C, 10 nM; AP-B4C66, 0.5 nM; AP-Lingo-1, 10 nM; AP-OMGP, 10 nM; AP-MAG, 30 nM. These concentrations are close to the binding Kd of these proteins to NgR so that any […] is reflected linearly in staining.
(§2) FIG. 4B. AP binding of NgR ligands to NgR mutants expressed as percentage of wild type NgR. AP after incubation with AP fused ligands, AP bound to COS-7 cells expressing NgR or NgR mutants were stained and measured.
(§3) To better define how multiple ligands bind to the NgR protein, we examined a series of Ala-substituted NgR for ligand binding activity. NgR mutagenesis was done using the Quick Change Multisite Directed Mutagenesis Kit (Stratagene catalog #200514). Human NgR1 was used as a template. Ala substitutions were generated for each of the charged residues predicted to be solvent accessible at the surface of the ligand binding domain of NgR (Barton, W. A., et al., Embo J. 22:3291-3302 (2003); He, X. L., et al., Neuron 38:177-185 (2003)). We generated mutants in which 1-8 surface residues localized within 5 A of one another were Ala-substituted. Because of the coiling nature of the LRR structure, as residues juxtaposed on the protein surface are commonly separated by approximately 25 residues in the primary structure. In addition to mutations in specific charged surface patches, other mutations were targeted to glycosylation sites and to regions predicted to be involved in ligand binding based on the NgR structure (Barton, W. A., et al., Embo J. 22:3291-3302 (2003); He, X. L., et al., Neuron 38:177-185 (2003)). In addition, a variant corresponding to a human polymorphism was examined (D259N). None of the mutations altered the Leu residues that define the LRR structure itself or the Cys residues critical in the amino and carboxyl terminal capping domains. The vast majority of such Ala surface substitution mutants were expressed as immunoreactive polypeptides with a molecular weight and an expression level indistinguishable from wild type NgR (FIG. 4C and data not shown).
(§4) This collection of 74 individual NgR mutants was interrogated for AP-Nogo-66, AP-Amino-Nogo-B4C, AP-MAG, AP-OMgp, and AP-Lingo-1 binding. AP-Nogo66, AP-MAG, AP-OMGP and AP-Lingo-1 constructs are described elsewhere (Fournier, A. E., et al., Nature 409:341-346 (2001); Liu, B. P., et al., Science 297:1190-1193 (2002); Mi, S., et al., Nat. Neurosci. 7:221-228 (2004); Wang, K. C., et al., Nature 417:941-944 (2002b)). The properties of the NgR mutants fell into one of three major categories (Table II and FIG. 5). A number of Ala substituted NgR polypeptides bound all of the ligands at wild type levels. […] In addition, a significant extent of the concave surface is dispensable for ligand binding.
(§5) Binding of Alanine substituted NgR mutants to NgR ligands were compared to wild type NgR and the levels of binding were categorized as ++ (WT level), + (weaker than wild type), tr (trace binding), − (no binding), N/A (not determined). NgR mutant proteins were also subjected to SDS-PAGE and probed by anti-NgR antibodies. Mutants with expression level similar to WT NgR were labeled as “y”.

AP-B4C = biological target: T2, AP-B4C (Homo sapiens, UniProt Q9NQC3); test: Binding of AP-B4C to COS-7 cells expressing NgR mutants; parameters: key: ++: WT level; +: weaker than wild type; trace binding; −: no binding; conditions: AP-B4C 10 nM; level of binding compared to wild type NgR
T2 construct: a.a; 950-1018 (AmNg B4C); made in house; host or cells: AP ligand: HEK293T conditioned medium; NgR mutants: COS-7
T2 sequence (Q9NQC3 950-1018): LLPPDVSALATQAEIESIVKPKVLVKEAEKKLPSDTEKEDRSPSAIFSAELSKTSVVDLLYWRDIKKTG
Description: as §1, §2, §3, §4, §5

AP-Nogo66 = biological target: T3, AP-Nogo66 (Homo sapiens, UniProt Q9NQC3); test: Binding of AP-Nogo66 to COS-7 cells expressing NgR mutants; parameters: key: ++: WT level; +: weaker than wild type; trace binding; −: no binding; conditions: AP-Ng66 5 nM; level of binding compared to wild type NgR
T3 construct: made in house; NgR mutants: COS-7
T3 sequence (Q9NQC3 1055-1120 limits assumed): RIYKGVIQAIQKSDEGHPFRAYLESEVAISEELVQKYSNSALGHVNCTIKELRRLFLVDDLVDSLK
Description: as §1, §2, §3, §4, §5

NgR ligands = test: Binding of alanine substituted NgR mutants to NgR ligands, summary categories; conditions: AP-Nogo66, AP-B4C, AP-B4C66, AP-Lingo-1, AP-OMgp and AP-MAG; compared to wild type NgR
Procedure, shortened: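 Human NgR1 template; 74 mutants with 1-8 solvent-exposed charged surface residues (within 5 Å) Ala-substituted, plus glycosylation-site mutants and D259N polymorphism. Mutants tested for binding of AP-tagged Nogo66, Amino-Nogo-B4C, B4C66, MAG, OMgp and Lingo-1; each classed as losing all, keeping all, or selective ligand binding.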

AP-OMgp = test: Binding of AP-OMgp to COS-7 cells expressing NgR mutants; parameters: key: ++: WT level; +: weaker than wild type; trace binding; −: no binding; conditions: AP-OMGP 10 nM; level of binding compared to wild type NgR
Description: as §1, §2, §3, §4, §5

AP-B4C66 = test: Binding of AP-B4C66 to COS-7 cells expressing NgR mutants; parameters: key: ++: WT level; +: weaker than wild type; trace binding; −: no binding; conditions: AP-B4C66 0.5 nM; level of binding compared to wild type NgR
Description: as §1, §2, §3, §4, §5

AP-MAG = test: Binding of AP-MAG to COS-7 cells expressing NgR mutants; parameters: key: ++: WT level; +: weaker than wild type; trace binding; −: no binding; conditions: AP-MAG 30 nM; level of binding compared to wild type NgR
Description: as §1, §2, §3, §4, §5

B1: 63, 65, 87, 89: human NgR1 mutant, listed residues mutated to alanine (protein)
chain: CPGACVCYNEPKVTTSCPQQGLQAVPVGIPAASQRIALAGNRISHVPAASFRACRNLTILALASNVLARIDAAAFTGLALLEQLDLSDNAQLRSVDPATFHGLGRLHTLHLDRCGLQELGPGLFRGLAALQYLYLQDNALQALPDDTFRDLGNLTHLFLHGNRISSVPERAFRGLHSLDRLLLHQNRVAHVHPHAFRDLGRLMTLYLFANNLSALPTEALAPLRALQYLRLNDNPWVCDCRARPLWAWLQKFRGSSSEVPCSLPQRLAGRDLKRLAANDLQGCAVATGPYHPIWTGRATDEEPLGLPKCCQPDAADKASVLEPGRPASAGNALKGRVPPGDSPPGNGSGPRHINDSPFGTLPGSAEPPLTAVRPEGSEPPGFPTSGPRRRPGCSRKNRTRSHCRLGQAGSGGGGTGDSEGSGALPSLTCSLTPLGLALVLWTVLGPC
AP-Lingo-1
  Lingo-1: −
AP-B4C
  B4C: ++
AP-Nogo66
  Ng66: ++
NgR ligands
  ligand binding category of NgR mutant (Table II): Differential binding
AP-OMgp
  OMgp: +
AP-B4C66
  B4C-66: ++
AP-MAG
  MAG: −

B2: 87, 89: human NgR1 mutant, listed residues mutated to alanine (protein)
chain: CPGACVCYNEPKVTTSCPQQGLQAVPVGIPAASQRIFLHGNRISHVPAASFRACRNLTILALASNVLARIDAAAFTGLALLEQLDLSDNAQLRSVDPATFHGLGRLHTLHLDRCGLQELGPGLFRGLAALQYLYLQDNALQALPDDTFRDLGNLTHLFLHGNRISSVPERAFRGLHSLDRLLLHQNRVAHVHPHAFRDLGRLMTLYLFANNLSALPTEALAPLRALQYLRLNDNPWVCDCRARPLWAWLQKFRGSSSEVPCSLPQRLAGRDLKRLAANDLQGCAVATGPYHPIWTGRATDEEPLGLPKCCQPDAADKASVLEPGRPASAGNALKGRVPPGDSPPGNGSGPRHINDSPFGTLPGSAEPPLTAVRPEGSEPPGFPTSGPRRRPGCSRKNRTRSHCRLGQAGSGGGGTGDSEGSGALPSLTCSLTPLGLALVLWTVLGPC
AP-Lingo-1
  Lingo-1: −
AP-B4C
  B4C: ++
AP-Nogo66
  Ng66: ++
NgR ligands
  ligand binding category of NgR mutant (Table II): Differential binding
AP-OMgp
  OMgp: +
AP-B4C66
  B4C-66: ++
AP-MAG
  MAG: +

B3: 237, 256, 284: human NgR1 mutant, listed residues mutated to alanine (protein)
chain: CPGACVCYNEPKVTTSCPQQGLQAVPVGIPAASQRIFLHGNRISHVPAASFRACRNLTILWLHSNVLARIDAAAFTGLALLEQLDLSDNAQLRSVDPATFHGLGRLHTLHLDRCGLQELGPGLFRGLAALQYLYLQDNALQALPDDTFRDLGNLTHLFLHGNRISSVPERAFRGLHSLDRLLLHQNRVAHVHPHAFRDLGRLMTLYLFANALSALPTEALAPLRALQYLALNDNPWVCDCRARPLWAWLQKFRGSSSAVPCSLPQRLAGRDLKRLAANDLQGCAVATGPYHPIWTGRATDEEPLGLPKCCQPDAADKASVLEPGRPASAGNALKGRVPPGDSPPGNGSGPRHINDSPFGTLPGSAEPPLTAVRPEGSEPPGFPTSGPRRRPGCSRKNRTRSHCRLGQAGSGGGGTGDSEGSGALPSLTCSLTPLGLALVLWTVLGPC
AP-Lingo-1
  Lingo-1: ++
AP-B4C
  B4C: ++
AP-Nogo66
  Ng66: ++
NgR ligands
  ligand binding category of NgR mutant (Table II): Differential binding
AP-OMgp
  OMgp: +
AP-B4C66
  B4C-66: ++
AP-MAG
  MAG: −

B4: 89, 90: human NgR1 mutant, listed residues mutated to alanine (protein)
chain: CPGACVCYNEPKVTTSCPQQGLQAVPVGIPAASQRIFLHGNRISHVPAASFRACRNLTILWLAANVLARIDAAAFTGLALLEQLDLSDNAQLRSVDPATFHGLGRLHTLHLDRCGLQELGPGLFRGLAALQYLYLQDNALQALPDDTFRDLGNLTHLFLHGNRISSVPERAFRGLHSLDRLLLHQNRVAHVHPHAFRDLGRLMTLYLFANNLSALPTEALAPLRALQYLRLNDNPWVCDCRARPLWAWLQKFRGSSSEVPCSLPQRLAGRDLKRLAANDLQGCAVATGPYHPIWTGRATDEEPLGLPKCCQPDAADKASVLEPGRPASAGNALKGRVPPGDSPPGNGSGPRHINDSPFGTLPGSAEPPLTAVRPEGSEPPGFPTSGPRRRPGCSRKNRTRSHCRLGQAGSGGGGTGDSEGSGALPSLTCSLTPLGLALVLWTVLGPC
AP-Lingo-1
  Lingo-1: −
AP-B4C
  B4C: +
AP-Nogo66
  Ng66: +
NgR ligands
  ligand binding category of NgR mutant (Table II): Differential binding
AP-OMgp
  OMgp: −
AP-B4C66
  B4C-66: +
AP-MAG
  MAG: −
